Assay results as given in patent US20160046711A1 (Novartis, published 2016).
Like-named read-outs stand apart in the source and are kept apart here. Each block holds one molecule with its values, some of them ahead of it.

Experiments:
CDH6-N573A [1] = target: T1, CDH6-N573A (human, UniProt P55285 54-615); assay: ELISA on coated CDH6-N573A, O.D.
T1 sequence: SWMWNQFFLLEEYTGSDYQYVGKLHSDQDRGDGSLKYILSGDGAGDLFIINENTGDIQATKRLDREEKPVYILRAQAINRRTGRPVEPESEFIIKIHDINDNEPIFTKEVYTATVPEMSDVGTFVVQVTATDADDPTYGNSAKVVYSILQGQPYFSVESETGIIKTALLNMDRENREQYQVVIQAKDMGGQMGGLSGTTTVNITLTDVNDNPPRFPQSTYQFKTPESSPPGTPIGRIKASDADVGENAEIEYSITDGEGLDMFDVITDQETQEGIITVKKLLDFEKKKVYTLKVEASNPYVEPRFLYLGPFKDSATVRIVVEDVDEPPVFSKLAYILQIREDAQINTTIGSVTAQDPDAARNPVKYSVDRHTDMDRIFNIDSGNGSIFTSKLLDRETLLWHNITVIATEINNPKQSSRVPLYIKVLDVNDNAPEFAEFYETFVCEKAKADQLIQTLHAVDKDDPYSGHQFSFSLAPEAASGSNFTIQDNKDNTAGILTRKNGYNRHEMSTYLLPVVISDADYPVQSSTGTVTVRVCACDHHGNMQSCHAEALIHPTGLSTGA

[2] = target: T2, human CDH6 expressed on cells (human, UniProt P55285 54-790); assay: FACS histogram on OVCAR3 cells
T2 sequence: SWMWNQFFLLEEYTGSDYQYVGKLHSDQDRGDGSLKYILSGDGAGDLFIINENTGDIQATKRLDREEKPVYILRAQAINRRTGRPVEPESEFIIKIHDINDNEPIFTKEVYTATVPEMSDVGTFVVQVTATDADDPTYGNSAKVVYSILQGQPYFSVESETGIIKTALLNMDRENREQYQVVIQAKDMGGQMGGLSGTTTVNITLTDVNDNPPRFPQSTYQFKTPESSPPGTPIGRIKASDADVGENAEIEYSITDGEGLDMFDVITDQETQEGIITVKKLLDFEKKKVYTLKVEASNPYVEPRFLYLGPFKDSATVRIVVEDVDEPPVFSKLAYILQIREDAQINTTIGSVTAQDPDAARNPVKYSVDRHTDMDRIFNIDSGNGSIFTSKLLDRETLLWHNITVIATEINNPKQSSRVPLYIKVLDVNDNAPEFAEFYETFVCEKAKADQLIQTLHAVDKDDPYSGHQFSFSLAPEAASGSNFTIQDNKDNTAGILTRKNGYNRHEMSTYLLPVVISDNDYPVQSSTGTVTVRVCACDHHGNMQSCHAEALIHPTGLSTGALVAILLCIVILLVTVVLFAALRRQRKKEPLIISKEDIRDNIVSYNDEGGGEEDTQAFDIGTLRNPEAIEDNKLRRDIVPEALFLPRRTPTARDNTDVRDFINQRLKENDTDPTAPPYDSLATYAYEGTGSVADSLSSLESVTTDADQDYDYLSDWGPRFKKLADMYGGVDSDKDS

CDH6 wt [3] = target: T3, CDH6 wt (human, UniProt P55285 54-615, limits assumed); assay: ELISA on coated CDH6-wt, O.D.
T3 sequence: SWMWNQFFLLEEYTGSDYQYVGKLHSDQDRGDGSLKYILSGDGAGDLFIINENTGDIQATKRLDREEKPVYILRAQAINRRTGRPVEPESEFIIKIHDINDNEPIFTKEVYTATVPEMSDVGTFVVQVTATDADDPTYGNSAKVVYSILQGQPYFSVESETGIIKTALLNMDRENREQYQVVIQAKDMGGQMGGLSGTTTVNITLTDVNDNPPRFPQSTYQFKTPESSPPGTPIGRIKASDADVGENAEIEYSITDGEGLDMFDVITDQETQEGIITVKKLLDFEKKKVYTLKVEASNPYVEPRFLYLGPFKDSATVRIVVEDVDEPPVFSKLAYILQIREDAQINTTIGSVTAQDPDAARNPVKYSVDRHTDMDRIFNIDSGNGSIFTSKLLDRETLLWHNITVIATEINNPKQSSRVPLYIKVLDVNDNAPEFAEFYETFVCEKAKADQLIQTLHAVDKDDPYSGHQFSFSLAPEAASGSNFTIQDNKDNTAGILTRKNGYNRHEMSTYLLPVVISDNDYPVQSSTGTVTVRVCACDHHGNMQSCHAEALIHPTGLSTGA

[4] = target: T2, human CDH6 expressed on cells; assay: FACS histogram on OVCAR8-CDH6+ cells
CDH6 wt [5] = target: T3, CDH6 wt; assay: ELISA on coated CDH6-wt, O.D.; remark: listed apart in the source
CDH6-N573A [6] = target: T1, CDH6-N573A; assay: ELISA on coated CDH6-N573A, O.D.; remark: listed apart in the source
CDH6-D574A [7] = target: T4, CDH6-D574A (human, UniProt P55285 54-615); assay: ELISA on coated CDH6-D574A, O.D.
T4 sequence: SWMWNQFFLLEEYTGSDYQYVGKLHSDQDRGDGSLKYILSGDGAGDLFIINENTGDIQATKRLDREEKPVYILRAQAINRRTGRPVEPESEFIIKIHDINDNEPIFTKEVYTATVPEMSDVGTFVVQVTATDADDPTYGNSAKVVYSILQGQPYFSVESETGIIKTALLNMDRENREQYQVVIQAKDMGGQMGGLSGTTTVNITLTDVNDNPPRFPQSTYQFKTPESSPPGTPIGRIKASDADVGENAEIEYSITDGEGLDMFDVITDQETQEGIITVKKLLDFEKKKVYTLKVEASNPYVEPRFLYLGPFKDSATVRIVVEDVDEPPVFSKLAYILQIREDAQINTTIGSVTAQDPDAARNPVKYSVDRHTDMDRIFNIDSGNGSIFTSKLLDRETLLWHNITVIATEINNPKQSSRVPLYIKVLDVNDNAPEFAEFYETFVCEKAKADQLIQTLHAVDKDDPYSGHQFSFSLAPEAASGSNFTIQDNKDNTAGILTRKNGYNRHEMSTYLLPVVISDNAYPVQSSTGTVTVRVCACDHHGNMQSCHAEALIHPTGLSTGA

CDH6-Y575A [8] = target: T5, CDH6-Y575A (human, UniProt P55285 54-615); assay: ELISA on coated CDH6-Y575A, O.D.
T5 sequence: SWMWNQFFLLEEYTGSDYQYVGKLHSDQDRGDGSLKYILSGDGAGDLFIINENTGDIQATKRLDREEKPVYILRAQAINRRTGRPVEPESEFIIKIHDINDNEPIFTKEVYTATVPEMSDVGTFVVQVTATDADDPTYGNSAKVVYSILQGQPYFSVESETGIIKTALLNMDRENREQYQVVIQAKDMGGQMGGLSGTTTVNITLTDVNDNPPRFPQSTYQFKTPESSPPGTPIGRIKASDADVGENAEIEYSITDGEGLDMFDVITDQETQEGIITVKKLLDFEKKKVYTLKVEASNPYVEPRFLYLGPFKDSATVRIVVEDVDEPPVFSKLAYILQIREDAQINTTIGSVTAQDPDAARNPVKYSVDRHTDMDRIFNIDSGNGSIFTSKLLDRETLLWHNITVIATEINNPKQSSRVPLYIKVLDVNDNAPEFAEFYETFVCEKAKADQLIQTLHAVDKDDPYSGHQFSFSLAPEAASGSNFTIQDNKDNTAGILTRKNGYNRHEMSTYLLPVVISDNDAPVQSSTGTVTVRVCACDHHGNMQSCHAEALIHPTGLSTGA

CDH6 wt [9] = target: T3, CDH6 wt; assay: ELISA on coated CDH6-wt, O.D.; remark: listed apart in the source
CDH6-N573A [10] = target: T1, CDH6-N573A; assay: ELISA on coated CDH6-N573A, O.D.; remark: listed apart in the source
CDH6-Y575A [11] = target: T5, CDH6-Y575A; assay: ELISA on coated CDH6-Y575A, O.D.; remark: listed apart in the source
CDH6-D574A [12] = target: T4, CDH6-D574A; assay: ELISA on coated CDH6-D574A, O.D.; remark: listed apart in the source

EC50 (CDH6-N573A [1]): 545 nM
Geom. Mean Fluorescence [2]: 57.9
EC50 (CDH6 wt [3]): 300 nM
Geom. Mean Fluorescence [4]: 54.2
Molecule: human isotype control IgG (antibody)

Geom. Mean Fluorescence [2]: 60.4
Geom. Mean Fluorescence [4]: 56.5
Molecule: non-binding control ADC (antibody)

EC50 (CDH6 wt [5]): 7.11 µM
EC50 (CDH6-N573A [6]): 6.74 µM
EC50 (CDH6-D574A [7]): 7.58 µM
EC50 (CDH6-Y575A [8]): 7.2 µM
B1: NOV0720 (antibody, human IgG1, lambda, V domains shown)
VH: QVQLQQSGPGLVKPSQTLSLTCAISGDSVSSNSAGWNWIRQSPSRGLEWLGRIYYRSKWYNDYAVSVKSRITINPDTSKNQFSLQLNSVTPEDTAVYYCAREKYTVSFYDFFDYWGQGTLVTVSS
VL: DIELTQPPSVSVSPGQTASITCSGDNIGSMTAHWYQQKPGQAPVLVIYDKNERPSGIPERFSGSNSGNTATLTISGTQAEDEADYYCQSWDDSYNSVVFGGGTKLTVLG

EC50 (CDH6 wt [9]): 200 nM
EC50 (CDH6-N573A [10]): 459 µM
EC50 (CDH6-Y575A [11]): 287 nM
EC50 (CDH6-D574A [12]): 151 µM
B2: NOV0710 (antibody, human IgG1, kappa, V domains shown)
VH: QVQLLESGGGLVQPGGSLRLSCAASGFTFSSYAMSWVRQAPGKGLEWVSVIRSSGSSTYYADSVKGRFTISRDNSKNTLYLQMNSLRAEDTAVYYCARGGGYFDYWGQGTLVTVSS
VL: DIQMTQSPSSLSASVGDRVTITCRASQSISLWLNWYQQKPGKAPKLLIYAASTLQSGVPSRFSGSGSGTDFTLTISSLQPEDFATYYCQQYYTSPYTFGQGTKVEIKR
